Experimental data from the supplement of paper PMC10567573.

B1: CAMK2D (parent)
chain: LLKHPNIVRLHDSISEEGFHYLVF
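Note: lentivirally expressed fusions sorted by FACS into six bins by GFP to DsRed ratio, PSI derived from sequencing read proportions per bin multiplied by bin number.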

Variants of: B1
Test: protein stability index of a GFP-peptide fusion (GPS, HEK-293T) (PSI 1-6); higher = more stable
Conditions: c terminus: a fixed tail appended
In the case of LLKHHNIVRLHDSISEEGFHYLVF [P5H], the protein stability index is reported as 2.4.
In the case of LLKHKNIVRLHDSISEEGFHYLVF [P5K], the protein stability index is reported as 2.42.
LLKHLNIVRLHDSISEEGFHYLVF [P5L] gave a protein stability index of 3.34.
Work on LLKHMNIVRLHDSISEEGFHYLVF [P5M] yielded a protein stability index of 1.72.
For LLKHINIVRLHDSISEEGFHYLVF [P5I], the protein stability index was 3.47.
Variant LLKHNNIVRLHDSISEEGFHYLVF [P5N] has a protein stability index of 2.58.
LLKHPNIVRLHDSISEEGFHYLVS [F24S] showed a protein stability index of 2.13.
LLKHPNIVRLHDSISEEGFHYLVA [F24A] showed a protein stability index of 1.62.
LLKHPNIVRLHDSISEEGFHYLVE [F24E] showed a protein stability index of 1.73.
For LLKHPNIVRLHDSISEEGFHYLVH [F24H], the protein stability index was 2.39.
LLKHPNIVRLHDSISEEGFHYLVV [F24V] gave a protein stability index of 2.12.
Variant LLKHPNIVRLHDSISEEGFHYLVW [F24W] has a protein stability index of 1.22.
Variant LLKHPNIVRLHDSISEEGFHYLVG [F24G] has a protein stability index of 2.47.
With LLKHPNILRLHDSISEEGFHYLVF [V8L] the protein stability index was 2.21.
In the case of LLKHPNIHRLHDSISEEGFHYLVF [V8H], the protein stability index is reported as 1.8.
For LLKHPNIYRLHDSISEEGFHYLVF [V8Y], the protein stability index was 2.91.
LLKHPNIRRLHDSISEEGFHYLVF [V8R] gave a protein stability index of 1.81.
Variant LLKHPNIKRLHDSISEEGFHYLVF [V8K] has a protein stability index of 2.05.
For LLKHPNIDRLHDSISEEGFHYLVF [V8D], the protein stability index was 2.41.
LLKHPNIVVLHDSISEEGFHYLVF [R9V] showed a protein stability index of 1.84.
Work on LLKHPNIVQLHDSISEEGFHYLVF [R9Q] yielded a protein stability index of 2.17.
With LLKHPNIVMLHDSISEEGFHYLVF [R9M] the protein stability index was 2.74.
Work on LLKHPNIVLLHDSISEEGFHYLVF [R9L] yielded a protein stability index of 3.22.
With LLKHPNIVPLHDSISEEGFHYLVF [R9P] the protein stability index was 2.45.
Variant LLKHPNIVKLHDSISEEGFHYLVF [R9K] has a protein stability index of 3.39.
In the case of LLKHPNIVHLHDSISEEGFHYLVF [R9H], the protein stability index is reported as 2.1.
LLKHPNIVDLHDSISEEGFHYLVF [R9D] showed a protein stability index of 3.18.
Work on LLKHPNIVCLHDSISEEGFHYLVF [R9C] yielded a protein stability index of 3.88.
Variant LLKHPNIVFLHDSISEEGFHYLVF [R9F] has a protein stability index of 1.26.
Work on LLKHPNIVRLHDSISEEGFCYLVF [H20C] yielded a protein stability index of 2.07.
For LLKHPNIVRLHDSISEEGFYYLVF [H20Y], the protein stability index was 1.41.
LLKHPNIVRLHDSISEEGFKYLVF [H20K] gave a protein stability index of 2.66.
Work on LLKHPNIVRLHDSISEEGFIYLVF [H20I] yielded a protein stability index of 3.5.
Work on LLKHPNIVRLHDSISEEGFDYLVF [H20D] yielded a protein stability index of 1.96.
Variant LLKHPNIVRLHDSISEEGFQYLVF [H20Q] has a protein stability index of 2.65.
In the case of LLKHPNIVRLHDSISEEGFWYLVF [H20W], the protein stability index is reported as 1.42.
For LLKHPNIVRLHDFISEEGFHYLVF [S13F], the protein stability index was 1.5.
LLKHPNIVRLHDPISEEGFHYLVF [S13P] showed a protein stability index of 2.75.
Work on LLKHPNIVRLHDDISEEGFHYLVF [S13D] yielded a protein stability index of 2.46.
Variant LLKHPNIVRLHDRISEEGFHYLVF [S13R] has a protein stability index of 1.83.
In the case of LLKHPNIVRLHDYISEEGFHYLVF [S13Y], the protein stability index is reported as 2.94.
With LLKHPNIVRLHDAISEEGFHYLVF [S13A] the protein stability index was 3.1.
LLKHPNIVRLHDCISEEGFHYLVF [S13C] gave a protein stability index of 2.82.
Variant LLKHPNIVRLHDGISEEGFHYLVF [S13G] has a protein stability index of 2.59.
LLKHPNIVRLHDIISEEGFHYLVF [S13I] gave a protein stability index of 2.96.
In the case of HLKHPNIVRLHDSISEEGFHYLVF [L1H], the protein stability index is reported as 1.51.
VLKHPNIVRLHDSISEEGFHYLVF [L1V] showed a protein stability index of 2.25.
Variant MLKHPNIVRLHDSISEEGFHYLVF [L1M] has a protein stability index of 2.61.
For TLKHPNIVRLHDSISEEGFHYLVF [L1T], the protein stability index was 1.62.
In the case of YLKHPNIVRLHDSISEEGFHYLVF [L1Y], the protein stability index is reported as 1.96.
Variant LLGHPNIVRLHDSISEEGFHYLVF [K3G] has a protein stability index of 2.04.
Variant LLRHPNIVRLHDSISEEGFHYLVF [K3R] has a protein stability index of 2.28.
Work on LLWHPNIVRLHDSISEEGFHYLVF [K3W] yielded a protein stability index of 2.83.
With LLAHPNIVRLHDSISEEGFHYLVF [K3A] the protein stability index was 2.38.
LLHHPNIVRLHDSISEEGFHYLVF [K3H] showed a protein stability index of 1.44.
LLTHPNIVRLHDSISEEGFHYLVF [K3T] showed a protein stability index of 1.52.
Variant LLDHPNIVRLHDSISEEGFHYLVF [K3D] has a protein stability index of 2.74.
In the case of LLYHPNIVRLHDSISEEGFHYLVF [K3Y], the protein stability index is reported as 3.
For LLSHPNIVRLHDSISEEGFHYLVF [K3S], the protein stability index was 1.79.
Work on LLKHPNMVRLHDSISEEGFHYLVF [I7M] yielded a protein stability index of 3.55.
Variant LLKHPNDVRLHDSISEEGFHYLVF [I7D] has a protein stability index of 1.99.
For LLKHPNPVRLHDSISEEGFHYLVF [I7P], the protein stability index was 1.76.
For LLKHPNCVRLHDSISEEGFHYLVF [I7C], the protein stability index was 3.93.
With LLKHPNKVRLHDSISEEGFHYLVF [I7K] the protein stability index was 1.56.
LLKHPNQVRLHDSISEEGFHYLVF [I7Q] showed a protein stability index of 2.14.
With LLKHPNIVRLHDSISEEGTHYLVF [F19T] the protein stability index was 3.57.
Variant LLKHPNIVRLHDSISEEGSHYLVF [F19S] has a protein stability index of 1.45.
In the case of LLKHPNIVRLHDSISEEGWHYLVF [F19W], the protein stability index is reported as 2.42.
LLKHPNIVRLHDSISEEGGHYLVF [F19G] gave a protein stability index of 1.23.
LLKHPNIVRLHDSISEEGIHYLVF [F19I] gave a protein stability index of 2.73.
LLKHPNIVRLHDSISEEGDHYLVF [F19D] showed a protein stability index of 1.73.
For LLKHPNIVRLHDSISEEGEHYLVF [F19E], the protein stability index was 2.38.
In the case of LLKHPNIVRLHDSISEEGVHYLVF [F19V], the protein stability index is reported as 1.52.
LLKHPNIVRLHDSISEEGYHYLVF [F19Y] showed a protein stability index of 2.08.
For LLKHPNIVRLHDSISEEGFHNLVF [Y21N], the protein stability index was 2.39.
LLKHPNIVRLHDSISEEGFHMLVF [Y21M] gave a protein stability index of 2.58.
In the case of LLKHPNIVRLHDSISEEGFHRLVF [Y21R], the protein stability index is reported as 2.63.
With LLKHPNIVRLHDSISEEGFHDLVF [Y21D] the protein stability index was 2.51.
LLKHPNIVRLHDSISEEGFHTLVF [Y21T] gave a protein stability index of 2.25.
LLKHPNIVRLHDSISEEGFHWLVF [Y21W] gave a protein stability index of 2.79.
In the case of LLKHPNIVRLHDSISEEGFHLLVF [Y21L], the protein stability index is reported as 1.97.
In the case of LLKHPNIVRLHDSISEEGFHELVF [Y21E], the protein stability index is reported as 2.32.
Work on LLKHPNIVRLHDSISEEGFHILVF [Y21I] yielded a protein stability index of 1.79.
Variant LLKHPNIVRLHDSISEEGFHKLVF [Y21K] has a protein stability index of 1.8.
Work on LLKHPNIVRLHDSISEEGFHFLVF [Y21F] yielded a protein stability index of 2.92.
For LLKHPNIVRLHDSISETGFHYLVF [E17T], the protein stability index was 2.31.
LLKHPNIVRLHDSISERGFHYLVF [E17R] showed a protein stability index of 2.11.
With LLKHPNIVRLHDSISEGGFHYLVF [E17G] the protein stability index was 2.8.
LLKHPNIVRLHDSISEKGFHYLVF [E17K] gave a protein stability index of 2.71.
For LLKHPNIVRLHDSISECGFHYLVF [E17C], the protein stability index was 2.99.
In the case of LLKHPNIVRLHDSISELGFHYLVF [E17L], the protein stability index is reported as 3.59.
In the case of LLKHPNIVRLHDSISEHGFHYLVF [E17H], the protein stability index is reported as 1.87.
With LLKHPNIVRLHDSISEWGFHYLVF [E17W] the protein stability index was 2.94.
LLKHPNIVRLHDSISENGFHYLVF [E17N] gave a protein stability index of 3.79.
